{
  "source": "IntAct's records for PubMed 21212807",
  "parents": {"B1": {"name": "TRAF family member-associated NF-kappa-B activator (Homo sapiens), Q92844 (parent)", "chain": "MDKNIGEQLNKAYEAFRQACMDRDSAVKELQQKTENYEQRIREQQEQLSLQQTIIDKLKSQLLLVNSTQDNNYGCVPLLEDSETRKNNLTLDQPQDKVISGIAREKLPKVRRQEVSSPRKETSARSLGSPLLHERGNIEKTFWDLKEEFHKICMLAKAQKDHLSKLNIPDTATETQCSVPIQCTDKTDKQEALFKPQAKDDINRGAPSITSVTPRGLCRDEEDTSFESLSKFNVKFPPMDNDSTFLHSTPERPGILSPATSEAVCQEKFNMEFRDNPGNFVKTEETLFEIQGIDPIASAIQNLKTTDKTKPSNLVNTCIRTTLDRAACLPPGDHNALYVNSFPLLDPSDAPFPSLDSPGKAIRGPQQPIWKPFPNQDSDSVVLSGTDSELHIPRVCEFCQAVFPPSITSRGDFLRHLNSHFNGET", "partner": "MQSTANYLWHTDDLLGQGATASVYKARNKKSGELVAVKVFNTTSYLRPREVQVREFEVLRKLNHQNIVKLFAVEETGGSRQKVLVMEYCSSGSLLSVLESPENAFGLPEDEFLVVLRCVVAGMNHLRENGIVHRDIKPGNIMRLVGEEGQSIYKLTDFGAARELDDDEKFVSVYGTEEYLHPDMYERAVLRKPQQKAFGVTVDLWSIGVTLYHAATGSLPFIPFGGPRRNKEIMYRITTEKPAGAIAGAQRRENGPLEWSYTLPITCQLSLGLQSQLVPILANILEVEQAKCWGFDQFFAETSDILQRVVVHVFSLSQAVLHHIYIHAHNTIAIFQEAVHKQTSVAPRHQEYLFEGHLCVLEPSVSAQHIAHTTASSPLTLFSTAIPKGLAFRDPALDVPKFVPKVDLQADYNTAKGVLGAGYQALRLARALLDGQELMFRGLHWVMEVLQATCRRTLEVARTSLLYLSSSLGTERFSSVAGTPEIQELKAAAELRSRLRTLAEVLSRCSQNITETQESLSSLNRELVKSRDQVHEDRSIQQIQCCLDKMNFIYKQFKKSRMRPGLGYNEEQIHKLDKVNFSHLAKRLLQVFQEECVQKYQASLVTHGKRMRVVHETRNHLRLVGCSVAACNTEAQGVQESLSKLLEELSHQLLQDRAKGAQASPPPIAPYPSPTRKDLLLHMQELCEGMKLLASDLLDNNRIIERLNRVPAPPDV"}},
  "data": [
    {"variants_of": "B1", "conditions": "with ikke_human IKBKE", "values": [
      {"variant": "MDKNIGEQLNKAYEAFRQACMDRDSAVKELQQKTENYEQRIREQQEQLSLQQTIIDKLKSQLLLVNSTQDNNYGCVPLLEDSETRKNNLTLDQPQDKVISGIAREKLPKVRRQEVSSPRKETSARSLGSPLLHERGNIEKTFWDLKEEFHKICMLAKAQKDHLSKLNIPDTATETQCSVPIQCTDKTDKQEALFKPQAKDDINRGAPSITSVTPRGLCRDEEDTSFESLSKFNVKFPPMDNDSTFLHSTPERPGILSPATSEAVCQEKFNMEFRDNPGNFVRTEETLFEIQGIDPIASAIQNLKTTDKTKPSNLVNTCIRTTLDRAACLPPGDHNALYVNSFPLLDPSDAPFPSLDSPGKAIRGPQQPIWKPFPNQDSDSVVLSGTDSELHIPRVCEFCQAVFPPSITSRGDFLRHLNSHFNGET", "note": "[K282R]", "effect of a mutation on the interaction": "increasing interaction"}
    ]}
  ]
}
